Target: the molecule itself
Assay: cryo-EM structure

B1: human CPEB3 residues 1-217 (prion-like domain 1 construct) (domain or fragment, UniProt Q8NE35 1-217, looked up)
chain: MQDDLLMDKSKTQPQPQQQQRQQQQPQPESSVSEAPSTPLSSETPKPEENSAVPALSPAAAPPAPNGPDKMQMESPLLPGLSFHQPPQQPPPPQEPAAPGASLSPSFGSTWSTGTTNAVEDSFFQGITPVNGTMLFQNFPHHVNPVFGGTFSPQIGLAQTQHHQQPPPPAPAPQPAQPAQPPQAQPPQQRRSPASPSQAPYAQRSAAAAYGHQPIMT
binding result: binds

Source: PMC13344147 (Structure (London, England : 1993), 2025)
